Assay results as given in article PMC9969416 (Endocrinology, 2023).

Target: the molecule itself
Assay: crystal structure

B1: ligand-binding domain (LBD) of human RXRα (residues 223-462) (domain or fragment)
chain: TSSANEDMPVERILEAELAVEPKTETYVEANMGLNPSSPNDPVTNICQAADKQLFTLVEWAKRIPHFSELPLDDQVILLRAGWNELLIASFSHRSIAVKDGILLATGLHVHRNSAHSAGVGAIFDRVLTELVSKMRDMQMDKTELGCLRAIVLFNPDSKGLSNPAEVEALREKVYASLEAYCKHKYPEQPGRFAKLLLRLPALRSIGLKCLEHLFFFKLIGDTPIDTFLMEMLEAPHQMT
  binding result: binds
